From PMC10547473
Read-outs that look alike come from different tables or passages of the source.

TFEB: 3xSA-TR (S134A, S138A, S142A)
localisation_or_trafficking (phosphorylation at S134): decreases
localisation_or_trafficking (phosphorylation at S138): decreases
localisation_or_trafficking (phosphorylation at S142): decreases

TFEB: 5xSA-TR (S122A, S134A, S138A, S142A, S211A)
localisation_or_trafficking (phosphorylation at S122): abolishes
localisation_or_trafficking (phosphorylation at S134): abolishes
localisation_or_trafficking (phosphorylation at S138): abolishes
localisation_or_trafficking (phosphorylation at S142): abolishes
localisation_or_trafficking (phosphorylation at S211): abolishes
